# The supplement of paper PMC10567573
# B1: RHOBTB3 (parent)
# chain: KVVEAHKIVLCAVSHVFMLLFNVK
# B2: IMPA1 (parent)
# chain: FIGEESVAAGEKSILTDNPTWIID
# Variants of: B1
# Assay: protein stability index of a GFP-peptide fusion (GPS, HEK-293T) (PSI 1-6); higher = more stable
# Settings: c terminus: a fixed tail appended
# 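Further: lentivirally expressed fusions sorted by FACS into six bins by GFP to DsRed ratio, PSI derived from sequencing read proportions per bin multiplied by bin number.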
row,Variant,protein stability index
1,H15T,1.92
2,H15K,2.17
3,H15C,3.87
4,H15D,3.14
5,H15N,3.41
6,H15P,1.89
7,H15V,3.1
8,H15F,2.06
9,H15I,3.89
10,H15S,2.82
11,H15Q,2.78
12,H15R,2.27
13,H15Y,3.36
14,S14V,2.49
15,S14P,2.55
16,S14T,2.95
17,S14Q,1.94
18,S14M,3.96
19,S14L,2.6
20,S14R,1.41
21,S14H,3.58
22,S14Y,2.55
23,S14G,2.17
24,S14D,2.17

row,Variant,protein stability index
1,S14N,3.59
2,S14A,2.36
3,S14F,2.8
4,S14K,2.65
5,S14I,2.88
6,K24W,2.42
7,K24D,3.08
8,K24T,2.95
9,K24H,1.55
10,K24Y,2.57
11,K24G,2.28
12,K24M,2.27
13,K24P,3.35
14,K24I,2.06
15,K24E,3.19
16,K24L,2.21
17,K24F,2.39
18,K24C,2.8
19,K24A,3.31
20,K24N,4.04
21,K24V,3.19
22,K24R,2.48
23,F17M,2.78
24,F17E,3.12

row,Variant,protein stability index
1,F17Q,2.41
2,F17G,3.57
3,F17K,2.76
4,F17T,2.9
5,F17D,2.52
6,F17H,3.54
7,F17V,1.88
8,F17C,3.12
9,F17R,2.23
10,F17W,2.49
11,F17A,2.4
12,F17I,2.06
13,F17S,2.33
14,L20M,2.63
15,L20A,3.27
16,L20Q,2.37
17,L20R,1.77
18,L20E,1.65
19,L20G,1.26
20,L20D,3.54
21,L20P,2.49
22,L20S,2.6
23,L20I,1.74
24,L20N,3.15

row,Variant,protein stability index
1,L20Y,3.49
2,L20V,2.42
3,L20K,1.89
4,L20H,3.28
5,L20F,2.97
6,L20W,1.9
7,V23K,3.66
8,V23D,2.29
9,V23W,2.5
10,V23H,3.18
11,V23F,2.99
12,V23C,2.47
13,V23T,3.33
14,V23Q,1.91
15,V23I,2.57
16,V23M,1.75
17,V23G,3.05
18,V23Y,3.03
19,V23P,2.86
20,V23S,2.44
21,V23L,2.62
22,V23R,3.19
23,V23E,3.25
24,M18R,1.14

row,Variant,protein stability index
1,M18D,1.92
2,M18H,2.34
3,M18A,3.04
4,M18S,1.95
5,M18N,3.02
6,M18Y,2.5
7,M18I,3.05
8,M18T,2.23
9,M18P,2.3
10,M18Q,2.43
11,M18G,2.75
12,M18K,1.55
13,M18F,3.57
14,M18C,2.3
15,M18E,2.48
16,M18L,3.85
17,V13N,2.33
18,V13W,1.82
19,V13S,2.92
20,V13Q,2.9
21,V13Y,2.62
22,V13M,4.81
23,V13R,3.01
24,V13P,2.59

row,Variant,protein stability index
1,V13L,2.12
2,V13T,4.13
3,V16E,3.26
4,V16G,3.44
5,V16R,2.79
6,V16I,2.65
7,V16Q,3.14
8,V16D,2.39
9,V16C,3.59
10,V16A,2.97
11,V16S,3.16
12,V16P,3.16
13,V16H,2.98
14,V16K,3.55
15,V16L,2.43
16,V16F,2.99
17,V16T,3.44
18,V16W,3.09
19,V16M,2.3
20,V16Y,2.19
21,V16N,3.11
22,L19P,2.31
23,L19W,3.11
24,L19T,3.4

row,Variant,protein stability index
1,L19R,3.74
2,L19I,3.67
3,L19D,3.41
4,L19A,2.69
5,L19F,3.32
6,L19N,2.18
7,L19S,2.2
8,L19G,2.75
9,L19E,2.2
10,L19Y,2.59
11,L19C,2.24
12,N22P,2.1
13,N22S,2.72
14,N22L,2.42
15,N22E,2.47
16,N22M,3.79
17,N22C,2.31
18,N22R,2.69
19,N22Q,2.84
20,N22T,4.37
21,N22F,2.43
22,N22D,3.27
23,N22K,1.9
24,N22H,2.8

row,Variant,protein stability index
1,N22Y,1.85
2,N22A,2.86
3,N22I,3.19
4,N22G,2.71
5,F21E,1.88
6,F21V,3.87
7,F21M,3.68
8,F21W,2.5
9,F21L,2.76
10,F21G,4.01
11,F21I,3.17
12,F21N,2.8
13,F21K,1.76
14,F21P,1.98
15,F21D,3.1
16,F21A,3.13
17,F21R,1.81
18,F21Y,2.14
19,F21H,2.51

# Variants of: B2
# Assay: as above
# Settings: c terminus: a fixed tail appended
row,Variant,protein stability index
1,E4A,2.54
2,E4Y,1.9
3,E4L,1.8
4,E4R,2.04
5,E4S,1.8
6,E4G,2.14
7,E4W,3.71
8,E4F,3.31
9,E4D,2.01
10,E4I,1.84
11,E4T,1.85
12,E4H,1.76
13,E4Q,1.5
14,E4K,1.83
15,E4V,1.53
16,E4M,2.35
17,E4N,1.98
18,E4C,2.04
19,E4P,1.77
20,S6Y,1.51
21,S6N,2.25
22,S6V,1.7
23,S6W,2.53
24,S6L,2.24
25,S6H,2.29

row,Variant,protein stability index
1,S6C,1.7
2,S6Q,2.42
3,S6K,1.57
4,S6D,2.56
5,S6G,2.42
6,S6R,1.51
7,S6M,2.07
8,S6I,1.73
9,S6T,2.23
10,S6F,1.81
11,S6P,3.1
12,S6A,2.01
13,S6E,3.07
14,V7S,2.17
15,V7K,2.53
16,V7T,2.28
17,V7E,3.03
18,V7C,2
19,V7Q,2.19
20,V7A,2.46
21,V7M,1.94
22,V7P,2.19
23,V7R,1.85
24,V7G,2.15
25,V7L,2.25

row,Variant,protein stability index
1,V7D,2.71
2,V7I,1.92
3,V7Y,2.01
4,V7H,2.06
5,V7F,2.05
6,V7N,2.4
7,V7W,1.94
8,E5G,2.79
9,E5S,1.92
10,E5P,2.35
11,E5R,2
12,E5F,3.35
13,E5Y,2.52
14,E5H,1.93
15,E5L,1.71
16,E5D,1.89
17,E5K,1.88
18,E5V,3.68
19,E5A,2.05
20,E5N,1.53
21,E5M,2.31
22,E5C,2.7
23,E5I,3.46
24,E5T,2.38
25,E5Q,2.38

row,Variant,protein stability index
1,E5W,1.29
2,A8P,2.54
3,A8L,2.08
4,A8D,2.72
5,A8E,2.79
6,A8C,1.55
7,A8M,2.05
8,A8F,1.84
9,A8K,2.35
10,A8R,1.62
11,A8H,1.75
12,A8G,2.46
13,A8N,2.23
14,A8I,1.58
15,A8Q,2.29
16,I2Y,3.4
17,I2C,2.27
18,I2M,3.7
19,I2E,4.82
20,I2V,1.1
21,I2W,2.74
22,I2A,2.59
23,I2L,2.99
24,I2N,4.25
25,I2P,3.05

row,Variant,protein stability index
1,I2F,3.65
2,I2G,4.24
3,I2D,4.79
4,I2K,4.42
5,I2T,2.83
6,I2H,2.59
7,I2R,4.28
8,I2Q,3.89
9,I2S,3.65
10,G3R,1.64
11,G3P,1.87
12,G3N,1.99
13,G3W,1.59
14,G3F,1.93
15,G3A,2.05
16,G3M,1.78
17,G3T,1.92
18,G3H,1.86
19,G3K,2.17
20,G3L,1.6
21,G3Y,1.88
22,G3V,2.8
23,G3S,1.89
24,G3C,1.31
25,G3D,3.27

row,Variant,protein stability index
1,G3E,3.55
2,G3Q,2.52
3,G3I,1.4
4,F1K,4.61
5,F1R,4.38
6,F1E,4.81
7,F1W,3.74
8,F1I,3.98
9,F1Y,2.54
10,F1M,4.6
11,F1Q,4.87
12,F1T,4.76
13,F1V,4.52
14,F1P,4.56
15,F1D,5.07
16,F1H,4.56
17,F1G,4.86
18,F1A,4.65
19,F1L,4.34
20,F1S,4.96
21,F1N,4.45
22,F1C,4.46
